Patent US20120276114A1, “IFN-GAMMA INHIBITORS IN THE TREATMENT OF MOTONEURON DISEASES” (UNIVERSITE D'AIX-MARSEILLE, priority 2009, published 2012)

B1: IFNγR1-COMP: Extracellular part of IFNγR1 fused to COMP, HA-tagged (SEQ ID NO: 15), expressed from AAV vector (protein)
chain: MGPQAAAGRMILLVVLMLSAKVGSGALTSTEDPEPPSVPVPTNVLIKSYNLNPVVCWEYQNMSQTPIFTVQVKVYSGSWTDSCTNISDHCCNIYGQIMYPDVSAWARVKAKVGQKESDYARSKEFLMCLKGKVGPPGLEIRRKKEEQLSVLVFHPEVVVNGESQGTMFGDGSTCYTFDYTVYVEHNRSGEILHTKHTVEKEECNETLCELNISVSTLDSRYCISVDGISSFWQVRTEKSKDVCIPPFHDDRKERPQPQPQPKPQPKPEPEGDLAPQMLRELQETNAALQDVRELLRHRVKEITFLKNTVMECDACGYPYDVPDYA
modifications: HA tag; AAV-expressed; amino acid sequence of mouse IFN gamma R1-cartilage oligomeric matrix protein chimera
B2: IFNγ: Soluble mouse recombinant IFNγ (Calbiochem; PBL Biomedical laboratories) (protein, UniProt P01580 23-155, looked up)
Interferon gamma: HGTVIESLESLNNYFNSSGIDVEEKSLFLDIWRNWQKDGDMKILQSQIISFYLRLFEVLKDNQAISNNISVIESHLITTFFSNSKAKKDAFMSIAKFEVNNPQVQRQAFNELIRVVHQLLPESSLRKRKRSRC
B3: DcR3-COMP: Extracellular part of DcR3 fused to COMP (SEQ ID NO: 17), decoy for both FasL and LIGHT, AAV-expressed (protein)
chain: MRALEGPGLSLLCLVLALPALLPVPAVRGVAETPTYPWRDAETGERLVCAQCPPGTFVQRPCRRDSPTTCGPCPPRHYTQFWNYLERCRYCNVLCGEREEEARACHATHNRACRCRTGFFAHAGFCLEHASCPPGAGVIAPGTPSQNTQCQPCPPGTFSASSSSSEQCQPHRNCTALGLALNVPGSSSHDTLCTSCTGFPLSTRVPGAEECERAVIDFVAFQDISIKRLQRLLQALEAPEGWGPTPRAGRAALQLKLRRRLTELLGAQDGALLVRLLQALRVARMPGLERSVRERFLPVHPQPQPKPQPKPEPEGDLAPQMLRELQETNAALQDVRELLRHRVKEITFLKNTVMECDACGYPYDVPDYA
modifications: AAV-expressed; Sequence for chimeric protein DcR3-COMP
B4: COMP: negative control generated by deleting approximately 80% of the extra-cellular part of Fas (secreted COMP) (protein)
chain: PQPQPKPQPKPEPEGDLAPQMLRELQETNAALQDVRELLRHRVKEITFLKNTVMECDACGYPYDVPDYA
modifications: amino acid sequence of a coiled-coil domain of cartilage oligomeric matrix protein

How the values were obtained:
[1] = system: corresponding recombinant ligand (recombinant soluble LIGHT and IFNγ); test: immunoprecipitation of ligand-receptor complex from conditioned media of transduced glioma cell lines; format: binding; conditions: anti-HA immunoprecipitation, immunoblot
Procedure: The constructs were checked by sequencing. The efficacy of IFNγR1-COMP, DcR3-COMP, Fas-COMP, and COMP to be efficiently secreted by astrocytes and to specifically interact with their respective ligands were evaluated in vitro by immunoprecipitation assays. Glioma cell lines were transduced with vectors encoding IFNγR1-COMP, DcR3-COMP, Fas-COMP, or COMP and conditioned media collected. Recombinant soluble LIGHT and IFNγ were added to different conditioned media. Immunoprecipitation of ligand-receptor complex were performed using anti-hemagglutinin (HA) tag antibody, since these constructs include an HA tag at their C-terminus, and immunocomplexes analysed by SDS-PAGE followed by immunoblotting with antibodies to LIGHT, IFNγR1 and IFNγ.

[2] = system: IFNγ-triggered death of motoneurons; test: AAV-delivered COMP chimeric receptors: rescue of motoneurons from IFNγ-triggered death; format: cell-based, mice; conditions: AAV vectors; IFNγ 250 ng/ml; survival 48 h later
Procedure: (§1) FIG. 7 evidences the efficiency of recombinant proteins IFNγR1-COMP, DcR3-COMP, and Fas-COMP (in the form of AAV viral vectors at 1.5×10^5 TU/ml), to interfere with death induced by their respective ligand(s) or cytokine (sFasL (50 ng/ml), sLight (50 ng/ml), IFNγ (250 ng/ml)), in contrast to the negative control (COMP). Cell survival was determined 48 h later as described in Example 4. All values are expressed as the means±S.D of three independent experiments.
(§2) The functionality of the dominant negatives in inhibiting Fas and LIGHT/IFNγ-induced death was evaluated in an isolated motoneurons culture system as described in Example 2. Embryonic motoneurons isolated from spinal cords of E12.5 CD1 mice were cultured for 6 h and then infected with 50 TU/ml of indicated with AAV-IFNγR1-COMP, AAV-DcR3-COMP, AAV-Fas-COMP, or AAV-COMP viral vectors. After 6 h of incubation the culture medium was replaced and motoneurons were treated 48 h later (when indicated) with effective doses of either sFasL (50 ng/ml), sLight (50 ng/ml) or IFNγ (250 ng/ml). Forty-eight hours later, survival was determined by direct counting of motoneurons (FIG. 7). […] On the other hand, IFNγ-triggered death was blocked by IFNγR1-COMP.

LIGHT = test: expression levels of LIGHT in motoneurons exposed to IFNγ; format: cell-based, mouse
Procedure: Neurons were plated at the density of 20,000 cells/cm^2 in 6-cm diameter dishes containing corresponding complemented Neurobasal medium (see above). Sodium dodecyl sulfate polyacrylamide gel electrophoresis (SDS-PAGE) and Western blotting were carried out on neurons, astrocytes (duplicates) and dissected lumbar spinal cords using protocol previously described in Raoul et al., 2005, above. Primary antibodies were anti-LT-βR (sc-8377, Santa Cruz Biotechnology, 1:500), anti-LIGHT (sc-28880, Santa Cruz Biotechnology, 1:500), anti-IFNγ (sc-52557, Santa Cruz Biotechnology, 1:500), anti-IFNγR1 (559911, BD Biosciences, 1:500), anti-IFNγR2 (ab31606, Abcam, 1:2000), anti-α-tubulin (B-5-1-2, Sigma-Aldrich, 1:20,000), anti-actin (AC-40, Sigma-Aldrich, 1:20,000). Proteins were detected using horseradish peroxidase (HRP)-conjugated secondary antibodies and visualized with the chemiluminescent HRP substrate (Millipore). Where indicated, immunoblot images were quantified and normalized relative to the α-tubulin or actin levels using the NIH ImageJ software.

[3] = system: sFasL-induced death of motoneurons; test: AAV-delivered COMP chimeric receptors: rescue of motoneurons from sFasL-induced death; format: cell-based, mice; conditions: AAV vectors; sFasL 50 ng/ml; survival 48 h later
Procedure: as §1, §2

[4] = system: sLIGHT-induced death of motoneurons; test: AAV-delivered COMP chimeric receptors: rescue of motoneurons from sLIGHT-induced death; format: cell-based, mice; conditions: AAV vectors; sLight 50 ng/ml; survival 48 h later
Procedure: as §1, §2

Molecule	interaction with corresponding recombinant ligand (immunoprecipitation) [1]	rescue of motoneurons from IFNγ-triggered death [2]	expression levels of LIGHT (LIGHT)	cell-type restriction of the synergistic lethal effect of IFNγ on LIGHT-induced death (motoneurons; compared with cortical, hippocampal, sensory and striatal neurons)	death of motoneurons (motoneurons; cultured motoneurons, survival 48 h after treatment)	effect on sFasL-induced death (motoneurons; motoneurons)	effect on LIGHT killing effect (motoneurons; suboptimal dose of sLIGHT and increasing doses of IFNγ)	responsiveness of freshly isolated motoneurons to sLIGHT or agonistic anti-LT-βR antibodies (motoneurons; treated at 0, 24 or 72 h, IFNγ combined with sLIGHT or anti-LT-βR antibodies)	rescue of motoneurons from sFasL-induced death [3]	rescue of motoneurons from sLIGHT-induced death [4]
B1	effectively interact	blocked								
B2			significantly enhancing	restricted to motoneurons	about 50%	no effect	substantially enhances	responsive to sLIGHT or agonistic anti-LT-βR antibodies		
B3	effectively interact								rescued	rescued
B4		did not interfere							did not interfere	did not interfere
